Experimental data from patent publication US20050042227A1.

Experiments:
Experiment in all cases: cell-based or functional assay
[1] = molecular target: LRP1 receptors on GM244 human Pompe fibroblasts (human) (UniProt Q07954)
LRP = molecular target: LRP
[2] = molecular target: mannose-6-phosphate receptor on GM244 human fibroblasts (human) (UniProt O00264)
mannose-6-phosphate receptor on GM244 human fibroblasts (human), sequence (O00264 whole entry): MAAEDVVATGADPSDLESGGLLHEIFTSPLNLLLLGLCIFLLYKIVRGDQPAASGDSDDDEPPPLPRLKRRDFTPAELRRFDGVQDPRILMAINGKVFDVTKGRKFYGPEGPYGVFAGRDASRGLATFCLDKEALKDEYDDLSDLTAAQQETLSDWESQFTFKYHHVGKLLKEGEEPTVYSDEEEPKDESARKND

LRP1 receptors on GM244 human Pompe fibroblasts (human), sequence (Q07954 20-4544): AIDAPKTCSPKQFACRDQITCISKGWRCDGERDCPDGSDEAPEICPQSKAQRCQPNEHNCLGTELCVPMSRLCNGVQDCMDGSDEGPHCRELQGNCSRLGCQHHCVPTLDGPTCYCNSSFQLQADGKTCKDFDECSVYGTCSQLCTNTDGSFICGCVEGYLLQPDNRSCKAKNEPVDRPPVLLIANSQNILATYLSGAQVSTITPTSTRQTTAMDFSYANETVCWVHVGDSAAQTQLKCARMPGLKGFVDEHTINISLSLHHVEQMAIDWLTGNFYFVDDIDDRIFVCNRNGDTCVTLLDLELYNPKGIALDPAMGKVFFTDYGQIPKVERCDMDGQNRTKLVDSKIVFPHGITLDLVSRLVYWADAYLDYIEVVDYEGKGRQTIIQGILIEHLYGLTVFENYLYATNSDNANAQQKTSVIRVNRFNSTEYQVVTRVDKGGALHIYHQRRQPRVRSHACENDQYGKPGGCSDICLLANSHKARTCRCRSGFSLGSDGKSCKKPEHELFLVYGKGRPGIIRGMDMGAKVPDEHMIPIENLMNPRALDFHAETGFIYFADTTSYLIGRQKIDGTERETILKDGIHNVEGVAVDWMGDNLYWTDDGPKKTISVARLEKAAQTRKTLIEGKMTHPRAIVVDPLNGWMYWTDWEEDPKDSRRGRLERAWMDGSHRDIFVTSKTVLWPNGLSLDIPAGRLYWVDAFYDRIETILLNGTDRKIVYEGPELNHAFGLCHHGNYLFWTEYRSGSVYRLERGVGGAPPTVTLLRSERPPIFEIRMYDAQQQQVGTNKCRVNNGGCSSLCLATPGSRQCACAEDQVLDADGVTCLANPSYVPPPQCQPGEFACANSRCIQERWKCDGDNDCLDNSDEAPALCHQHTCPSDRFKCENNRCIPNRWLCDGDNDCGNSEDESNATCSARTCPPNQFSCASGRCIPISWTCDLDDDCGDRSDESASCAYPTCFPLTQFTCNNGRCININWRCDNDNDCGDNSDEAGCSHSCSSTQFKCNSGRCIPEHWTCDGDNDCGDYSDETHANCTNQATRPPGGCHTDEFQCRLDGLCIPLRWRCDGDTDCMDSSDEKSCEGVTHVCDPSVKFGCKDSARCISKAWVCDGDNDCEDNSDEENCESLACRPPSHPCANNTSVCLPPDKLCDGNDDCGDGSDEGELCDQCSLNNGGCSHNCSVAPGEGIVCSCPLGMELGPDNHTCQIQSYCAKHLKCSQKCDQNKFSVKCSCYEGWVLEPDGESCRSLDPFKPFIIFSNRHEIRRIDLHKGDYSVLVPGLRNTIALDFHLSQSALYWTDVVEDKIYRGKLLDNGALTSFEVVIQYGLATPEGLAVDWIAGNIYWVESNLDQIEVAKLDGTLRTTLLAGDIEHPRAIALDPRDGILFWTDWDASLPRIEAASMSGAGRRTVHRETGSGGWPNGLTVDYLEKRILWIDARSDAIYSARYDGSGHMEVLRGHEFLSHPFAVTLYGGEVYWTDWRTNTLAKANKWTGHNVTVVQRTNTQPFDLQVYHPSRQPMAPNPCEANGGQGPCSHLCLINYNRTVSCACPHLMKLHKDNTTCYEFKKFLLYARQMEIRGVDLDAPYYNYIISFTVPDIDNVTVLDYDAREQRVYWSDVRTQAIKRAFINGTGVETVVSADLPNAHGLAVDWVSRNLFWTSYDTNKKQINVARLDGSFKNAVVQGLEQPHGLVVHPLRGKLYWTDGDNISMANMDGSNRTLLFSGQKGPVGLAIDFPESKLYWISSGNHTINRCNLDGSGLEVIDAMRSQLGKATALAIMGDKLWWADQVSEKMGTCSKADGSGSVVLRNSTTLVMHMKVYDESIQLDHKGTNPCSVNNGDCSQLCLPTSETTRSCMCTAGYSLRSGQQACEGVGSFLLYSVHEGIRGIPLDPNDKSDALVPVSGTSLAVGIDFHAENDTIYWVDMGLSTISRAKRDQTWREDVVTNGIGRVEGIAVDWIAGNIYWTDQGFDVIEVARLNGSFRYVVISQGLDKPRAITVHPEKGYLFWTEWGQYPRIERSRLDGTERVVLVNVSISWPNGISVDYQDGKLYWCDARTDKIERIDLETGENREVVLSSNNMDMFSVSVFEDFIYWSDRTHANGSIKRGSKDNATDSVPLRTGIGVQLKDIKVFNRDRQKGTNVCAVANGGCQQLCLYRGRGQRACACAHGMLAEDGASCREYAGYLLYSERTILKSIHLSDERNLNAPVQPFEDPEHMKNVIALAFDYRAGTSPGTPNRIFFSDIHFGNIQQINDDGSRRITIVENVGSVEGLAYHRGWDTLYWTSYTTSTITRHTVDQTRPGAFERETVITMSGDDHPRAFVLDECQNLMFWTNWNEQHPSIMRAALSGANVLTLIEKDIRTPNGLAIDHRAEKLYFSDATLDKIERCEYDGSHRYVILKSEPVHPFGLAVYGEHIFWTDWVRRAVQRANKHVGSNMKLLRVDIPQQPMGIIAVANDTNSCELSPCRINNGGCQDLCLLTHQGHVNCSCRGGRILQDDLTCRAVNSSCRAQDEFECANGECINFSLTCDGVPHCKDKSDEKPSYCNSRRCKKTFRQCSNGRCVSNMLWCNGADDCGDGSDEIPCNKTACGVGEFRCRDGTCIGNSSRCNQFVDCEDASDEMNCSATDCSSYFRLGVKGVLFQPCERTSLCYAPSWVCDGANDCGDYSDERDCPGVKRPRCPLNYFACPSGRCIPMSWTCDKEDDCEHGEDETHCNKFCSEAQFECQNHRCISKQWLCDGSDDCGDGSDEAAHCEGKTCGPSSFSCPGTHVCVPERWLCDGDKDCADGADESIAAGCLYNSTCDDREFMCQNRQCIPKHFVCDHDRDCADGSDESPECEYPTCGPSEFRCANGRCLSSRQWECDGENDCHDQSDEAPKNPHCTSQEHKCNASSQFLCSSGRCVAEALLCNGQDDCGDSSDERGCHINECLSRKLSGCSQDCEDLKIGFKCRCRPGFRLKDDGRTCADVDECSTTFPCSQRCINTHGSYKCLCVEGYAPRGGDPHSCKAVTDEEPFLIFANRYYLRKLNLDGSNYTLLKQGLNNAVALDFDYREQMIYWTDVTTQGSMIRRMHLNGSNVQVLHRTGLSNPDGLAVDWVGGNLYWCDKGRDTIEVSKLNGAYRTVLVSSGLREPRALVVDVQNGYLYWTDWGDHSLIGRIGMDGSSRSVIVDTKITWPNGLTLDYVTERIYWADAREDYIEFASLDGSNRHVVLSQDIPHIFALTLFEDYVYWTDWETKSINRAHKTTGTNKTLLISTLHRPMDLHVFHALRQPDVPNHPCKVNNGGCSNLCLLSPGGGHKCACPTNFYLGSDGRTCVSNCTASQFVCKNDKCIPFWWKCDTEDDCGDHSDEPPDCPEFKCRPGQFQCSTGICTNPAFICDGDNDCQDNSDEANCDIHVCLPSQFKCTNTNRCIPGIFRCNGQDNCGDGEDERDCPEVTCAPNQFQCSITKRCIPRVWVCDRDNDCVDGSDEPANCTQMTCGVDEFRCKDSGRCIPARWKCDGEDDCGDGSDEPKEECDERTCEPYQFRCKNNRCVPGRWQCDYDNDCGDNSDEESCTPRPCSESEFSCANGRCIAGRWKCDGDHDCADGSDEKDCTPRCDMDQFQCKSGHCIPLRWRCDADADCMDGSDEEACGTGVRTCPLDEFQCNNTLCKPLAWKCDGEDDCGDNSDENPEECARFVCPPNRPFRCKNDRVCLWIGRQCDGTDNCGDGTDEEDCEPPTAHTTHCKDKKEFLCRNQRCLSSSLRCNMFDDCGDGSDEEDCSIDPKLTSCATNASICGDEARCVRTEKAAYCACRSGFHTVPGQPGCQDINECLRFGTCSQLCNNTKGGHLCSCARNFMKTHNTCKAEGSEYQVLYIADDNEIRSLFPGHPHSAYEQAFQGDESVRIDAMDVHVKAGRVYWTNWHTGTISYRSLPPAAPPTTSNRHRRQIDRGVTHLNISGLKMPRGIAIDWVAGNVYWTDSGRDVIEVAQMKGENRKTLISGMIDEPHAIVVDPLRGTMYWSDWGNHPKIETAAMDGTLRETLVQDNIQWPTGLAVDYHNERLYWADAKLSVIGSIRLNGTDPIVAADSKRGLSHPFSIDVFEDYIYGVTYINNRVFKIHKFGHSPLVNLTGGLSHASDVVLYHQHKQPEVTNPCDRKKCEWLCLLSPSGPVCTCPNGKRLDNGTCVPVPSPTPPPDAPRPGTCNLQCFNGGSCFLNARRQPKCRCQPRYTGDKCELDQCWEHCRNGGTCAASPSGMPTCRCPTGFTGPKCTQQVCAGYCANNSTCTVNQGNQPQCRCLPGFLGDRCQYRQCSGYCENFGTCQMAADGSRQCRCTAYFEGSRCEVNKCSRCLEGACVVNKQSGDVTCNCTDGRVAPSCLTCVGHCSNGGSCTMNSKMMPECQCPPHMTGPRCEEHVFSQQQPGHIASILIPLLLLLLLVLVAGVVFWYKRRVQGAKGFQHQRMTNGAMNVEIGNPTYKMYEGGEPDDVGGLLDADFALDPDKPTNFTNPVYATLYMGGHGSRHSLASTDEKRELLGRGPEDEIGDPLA

Kuptake, uptake into GM244 fibroblasts measured by GAA enzyme activity [1]: 19 nM
percent of RAP-GAA uptake into GM244 fibroblasts inhibited by free RAP [1]: 90%
uptake into GM244 fibroblasts relative to recombinant GAA (Vmax ratio) [1]: 60 fold
uptake into GM244 fibroblasts relative to recombinant GAA at 10 nM [1]: 25 fold
Kuptake ratio (fusion/enzyme), RAP-GAA against rhGAA, fibroblast (ratio (fusion/enzyme)) (LRP): 25
Uptake ratio (fusion/enzyme), RAP-GAA against rhGAA, C2C12 myoblast, 5 nM (ratio (fusion/enzyme)) (LRP): 18
Uptake ratio (fusion/enzyme), RAP-GAA against rhGAA, C6 glioma, 5 nM (ratio (fusion/enzyme)) (LRP): 8
Uptake ratio (fusion/enzyme), RAP-GAA against rhGAA, fibroblast, 5 nM (ratio (fusion/enzyme)) (LRP): 9
Uptake ratio (fusion/enzyme), RAP-GAA against rhGAA, fibroblast, 50 nM (ratio (fusion/enzyme)) (LRP): 37
Uptake ratio (fusion/enzyme), RAP-GAA against rhGAA, fibroblast, saturation (ratio (fusion/enzyme)) (LRP): 70
percent of RAP-GAA uptake into GM244 fibroblasts inhibited by mannose 6-phosphate [2]: 20%
Substance: RAP-GAA fusion (human RAP fused N-terminally to human alpha-glucosidase)
